Test results published in PMC6294567, “The C-terminal D/E-rich domain of MBD3 is a putative Z-DNA mimic that competes for Zα DNA-binding activity” (Nucleic Acids Research, 2018).
Several values for one entry are separate records, joined by “and”; a condition that tells them apart may be missing. Equal values may be shown once. Primed or numbered codes have the meaning given here. Where no end group is shown, it is not given here. FITC′ = fluorescein isothiocyanate label

What was measured:
[1] = molecular target: MBDDE (MBD domain of MBD3 connected to the acidic tail; residues 263–291), tag-free (human) (UniProt O95983); assay: SEC; Zα (400 μM) and MBDDE (100 μM), or Zα and MBD under the same conditions, 4:1 molar ratio; 20 mM Tris-HCl pH 7.5, 50 mM NaCl, 1 mM TCEP; Superdex 75 10/300 GL; fractions on SDS-PAGE
[2] = molecular target: T1, Zα and 6-FAM-d(CG)6 duplex (Homo sapiens, UniProt P55265); assay: FP competition: displacement of Zα binding to 6-FAM-d(CG)6
T1 construct: Zα of human ADAR1; residues 133–209; His6 (pMCSG7, followed by a TEV site) (N, cleaved yes); made in house; host or cells: E. coli BL21(DE3)
T1 sequence (P55265 133-209): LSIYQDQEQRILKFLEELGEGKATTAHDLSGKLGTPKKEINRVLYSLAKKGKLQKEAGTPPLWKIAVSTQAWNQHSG

[3] = molecular target: Zα, tag-free (Z-DNA binding domain of human ADAR1, residues 133-209) (human) (UniProt P55265); assay: fluorescence polarisation; competition: unlabelled peptide added to the pre-incubated mixture of Zα and 6-FAM-d(CG)6 duplex; 20 mM HEPES-NaOH pH 7.5, 50 mM NaCl, 1 mM DTT; dose-response (variable slope) model
[4] = molecular target: T2, MBD3 (full-length human MBD3; residue 1–291), tag-free (human), O95983; assay: SEC; purified MBD3 alone on Superdex 200 increase 10/300 GL against protein standards; settings: remark: other sources report otherwise
T2 chain: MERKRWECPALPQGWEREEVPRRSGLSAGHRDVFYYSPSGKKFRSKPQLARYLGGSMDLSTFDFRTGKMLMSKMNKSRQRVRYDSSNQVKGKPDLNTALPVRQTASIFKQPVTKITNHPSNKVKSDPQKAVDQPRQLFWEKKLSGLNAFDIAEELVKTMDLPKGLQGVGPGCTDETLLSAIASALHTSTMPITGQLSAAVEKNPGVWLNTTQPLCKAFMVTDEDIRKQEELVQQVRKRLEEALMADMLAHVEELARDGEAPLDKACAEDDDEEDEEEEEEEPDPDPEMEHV

endogenous ADAR1 = assay: FLAG immunoprecipitation of endogenous ADAR1 in 293F cells; type: cell-based, human; settings: anti-ADAR1 western blot
Protocol: For expressing FLAG-MBD3 and its mutants in 293F cells (Freestyle™ 293 Expression System; Invitrogen), the DNA fragments were PCR amplified and inserted into HindIII site of pFLAG-CMV-2 vector (Sigma-Aldrich). The plasmids were purified by EasyPrep EndoFree Maxi Plasmid Extraction Kit (BIOTOOLS Co., Ltd, Taiwan) and transiently transfected into 293F cells using 293fectin (Invitrogen) according to the manufacturer's guidelines.
After 48 h posttransfection, the cells were washed with cold PBS and lysed with lysis buffer [50 mM Tris–HCl pH 7.5, 0.3% NP-40, 100 mM potassium acetate, 10% glycerol, 50 U/ml Benzonaes (Novagen) and EDTA-free protease inhibitor cocktail tablet (Roche)]. The lysates were incubated with anti-FLAG M2 Affinity Gel (A2220; Sigma-Aldrich) on a rotation at 4°C overnight. […] The immunoprecipitates were eluted by FLAG peptide (F4799; Sigma-Aldrich) and resolved by a NuPAGE 12% Bis–Tris gel (Invotrogen). Specific antibodies used for western blotting were Rabbit anti-FLAG (1:5000; F7425; Sigma-Aldrich) and rabbit anti-ADAR1 D7E2M (1:1000; 14175; Cell Signaling Technology).

[5] = molecular target: the molecule itself; assay: SEC; purified MBDDE or MBD alone on Superdex 75 10/300 GL against protein standards
Zα = molecular target: T3, Zα (Homo sapiens, UniProt P55265); assay: SEC / SDS-PAGE complex formation with Zα; type: binding
T3 construct: Zα of human ADAR1; residues 133–209; His6 (pMCSG7, followed by a TEV site) (N, cleaved yes); made in house; host or cells: E. coli BL21(DE3)
T3 sequence (P55265 133-209): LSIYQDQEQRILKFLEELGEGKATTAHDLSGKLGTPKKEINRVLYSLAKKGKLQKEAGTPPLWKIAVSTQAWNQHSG
Protocol: Equimolar amounts (0.1 mM) of Zα and DE-rich peptide were incubated on ice for 1 h in a buffer containing 20 mM HEPES–NaOH pH 7.5, 50 mM NaCl, 1 mM DTT. The mixture was then loaded on a Superdex 30 16/600 column (GE Healthcare) equilibrated in the same buffer. The fractions from the peaks corresponding to Zα alone and the complex of Zα and DE-rich peptide were collected and used for chemical cross-linking.
To analyze complex formation of Zα and other proteins (MBD3, MBD or MBDDE), the mixtures were incubated on ice for 1 h in a buffer containing 20 mM Tris–HCl pH 7.5, 50 mM NaCl, 1 mM TCEP. The mixture was then loaded on a Superdex 75 or Superdex 200 increase 10/300 column (GE Healthcare).

[6] = Stability of E. coli-expressed protein; type: physicochemical; settings: recombinant E. coli-expressed protein
[7] = molecular target: T4, MBD domain of MBD3 (residues 1–72), tag-free (human, UniProt O95983-1 1-72); assay: FP
T4 chain: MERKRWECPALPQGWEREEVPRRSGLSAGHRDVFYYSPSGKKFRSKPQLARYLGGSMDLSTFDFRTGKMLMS

[8] = molecular target: T5, Zα, tag-free (Z-DNA binding domain of human ADAR1, residues 133-209) (human, UniProt P55265 133-209); assay: fluorescence polarisation; FITC-labelled D/E-rich peptide against titrated protein; 20 mM HEPES-NaOH pH 7.5, 50 mM NaCl, 1 mM DTT; one-site total binding model; settings: both partners purified
T5 construct: Zα domain of human ADAR1, residues 133-209; from pMCSG7-Zα; source: E. coli BL21(DE3), purified (Ni-NTA, TEV cleavage, reverse Ni-NTA, gel filtration); not shown: His6, N-terminal, cleaved
T5 sequence (looked up): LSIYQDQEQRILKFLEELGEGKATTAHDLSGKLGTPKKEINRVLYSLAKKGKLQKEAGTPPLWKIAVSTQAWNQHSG

Sso7d = molecular target: T6, Sso7d (UniProt P39476 1-64); assay: as above; settings: both partners purified
T6 sequence (looked up): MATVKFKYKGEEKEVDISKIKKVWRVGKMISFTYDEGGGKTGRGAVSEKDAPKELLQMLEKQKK

[9] = molecular target: T7, Zα, tag-free (Z-DNA binding domain of human ADAR1, residues 133-209) (human), P55265; assay: fluorescence polarisation; competition: unlabelled peptide added to the pre-incubated mixture of Zα and 6-FAM-d(CG)6 duplex; 20 mM HEPES-NaOH pH 7.5, 50 mM NaCl, 1 mM DTT; dose-response (variable slope) model
T7 chain: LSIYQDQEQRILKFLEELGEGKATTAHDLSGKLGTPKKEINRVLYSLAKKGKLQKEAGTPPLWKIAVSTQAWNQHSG

d(CG)6 duplex = assay: Circular dichroism of d(CG)6 DNA conformation
Protocol: CD spectra were measured at 24°C on a J-815 Spectrometer (JASCO) using a 1 mm path length quartz cell. Prepare 7.5 μM DNA duplex in a buffer consisting of 5 mM HEPES–NaOH pH 7.5, 25 mM NaCl and 1 mM DTT, and in the absence or presence of indicated concentration of proteins. Spectra were recorded between 235 and 305 nm wavelength with a data pitch of 1 nm, bandwidth of 1 nm and with two accumulations at a scanning speed of 10 nm/min.
Figure 6. Zα can compete with the MBD domain for binding to d(CG)6, but not vice versa. (A) CD spectra of the d(CG)6 duplex in the presence of Zα. CD spectra of (B) the d(CG)6 and (C) the d(C^mG)6 duplex, respectively, in the presence of the MBD domain. (D) Monitoring of the change in CD spectra with the addition of increased amounts of Zα to the pre-incubated mixture of the MBD domain and d(CG)6. (E) Monitoring of the change in CD spectra with the addition of increased amount of the MBD domain to the pre-incubated mixture of Zα and d(CG)6. Spectra are expressed in absolute values of ellipticity in millidegrees (mdeg).

Zα, tag-free (Z-DNA binding domain of human ADAR1, residues 133-209) (from UniProt P55265 133-209) (domain or fragment)
stoichiometry N [1]: 1 Zα per MBDDE and 2 Zα per MBDDE

poly-L-glutamic acid [polyE]
competition with d(CG)6 for binding to Zα (in words) ([2]; 6-FAM-d(CG)6): could compete with Zα binding to d(CG)6, although the efficiency was lower than full-length D/E-rich peptide
concentration at 50% displacement (IC50) ([2]; pre-incubated Zα and 6-FAM-d(CG)6, triplicate, 95% CI 3.4–8.9 μg/ml): 5.5 µg/mL

poly-L-glutamic acid (1500–5500 Da; Sigma) peptide
IC50 [3]: 1000 to 3700 nM

B1: MBD3 (full-length human MBD3; residue 1–291), tag-free, O95983-1 1-291 (natural protein)
chain: MERKRWECPALPQGWEREEVPRRSGLSAGHRDVFYYSPSGKKFRSKPQLARYLGGSMDLSTFDFRTGKMLMSKMNKSRQRVRYDSSNQVKGKPDLNTALPVRQTASIFKQPVTKITNHPSNKVKSDPQKAVDQPRQLFWEKKLSGLNAFDIAEELVKTMDLPKGLQGVGPGCTDETLLSAIASALHTSTMPITGQLSAAVEKNPGVWLNTTQPLCKAFMVTDEDIRKQEELVQQVRKRLEEALMADMLAHVEELARDGEAPLDKACAEDDDEEDEEEEEEEPDPDPEMEHV
stoichiometry N [4]: 2

B2: FLAG-MBD3: FLAG-tagged full-length MBD3 transiently expressed in 293F cells (protein)
chain: MERKRWECPALPQGWEREEVPRRSGLSAGHRDVFYYSPSGKKFRSKPQLARYLGGSMDLSTFDFRTGKMLMSKMNKSRQRVRYDSSNQVKGKPDLNTALPVRQTASIFKQPVTKITNHPSNKVKSDPQKAVDQPRQLFWEKKLSGLNAFDIAEELVKTMDLPKGLQGVGPGCTDETLLSAIASALHTSTMPITGQLSAAVEKNPGVWLNTTQPLCKAFMVTDEDIRKQEELVQQVRKRLEEALMADMLAHVEELARDGEAPLDKACAEDDDEEDEEEEEEEPDPDPEMEHV
modifications: left off: FLAG, end not stated, kept
notes: FLAG-tagged full-length MBD3 transiently expressed in 293F cells
co-immunoprecipitation of ADAR1-p110 (lacking Zα) (endogenous ADAR1; 293F cells, FLAG-IP): also pulled down
co-immunoprecipitation of endogenous ADAR1 (endogenous ADAR1; transient expression in 293F cells, anti-FLAG resin): endogenous ADAR1 was indeed pulled down

B3: MBDDE (MBD domain of MBD3 connected to the acidic tail; residues 263–291), tag-free (domain or fragment, human, UniProt O95983-1 1-72, looked up)
chain: MERKRWECPALPQGWEREEVPRRSGLSAGHRDVFYYSPSGKKFRSKPQLARYLGGSMDLSTFDFRTGKMLMSDKACAEDDDEEDEEEEEEEPDPDPEMEHV
notes: MBD domain of human MBD3; its limits (1-72) are those printed for the MBD3MBD construct; No linker between the two stretches is mentioned; The protein was partly degraded from the C-terminal disordered region by mass spectrometry; source: E. coli BL21(DE3), purified (Ni-NTA, TEV cleavage, reverse Ni-NTA, gel filtration); not shown: His6, N-terminal, cleaved
stoichiometry N [5]: 2

B4: MBDDE: MBD domain of MBD3 connected to the acidic tail; residues 263–291 (protein)
chain: MERKRWECPALPQGWEREEVPRRSGLSAGHRDVFYYSPSGKKFRSKPQLARYLGGSMDLSTFDFRTGKMLMSDKACAEDDDEEDEEEEEEEPDPDPEMEHV
modifications: left off: His6, N-terminal, cleaved
efficiency of interaction with Zα relative to D/E peptide (Zα; SEC, Zα and MBDDE): less efficiently than with D/E peptide
complex formation with Zα on SEC (Zα; Zα 100 μM : protein 25 μM (4:1), ice 1 h, 20 mM Tris–HCl pH 7.5, 50 mM NaCl, 1 mM TCEP): could not detect stable complex formation of Zα and MBDDE
complex formation with Zα on SEC (Zα; Zα 400 μM : MBDDE 100 μM (4:1), ice 1 h, Superdex 75, pH 7.5): a small amount of MBDDE and Zα complex was detected
protein stability (in words) [6]: more sensitive to protease than the MBD domain

{FITC′}-DKACAEDDDEEDEEEEEEEPDPDP [D/E-rich peptide of MBD3, FITC-labelled]
Kd [7]: 21.2 nM
Kd [8]: 29.1 ± 1.7 nM
Kd (Sso7d): 1100 ± 200 nM

DKACAEDDDEEDEEEEEEEPDPDP (modifications not checked) [D/E-rich peptide of MBD3, unlabelled (full-length D/E-rich peptide)]
IC50 [9]: 164 nM

B5: MBD domain: MBD domain of MBD3; residues 1–72 (protein)
chain: MERKRWECPALPQGWEREEVPRRSGLSAGHRDVFYYSPSGKKFRSKPQLARYLGGSMDLSTFDFRTGKMLMS
modifications: left off: His6, N-terminal, cleaved
complex formation with Zα on SEC (Zα; Zα : MBD 4:1 molar ratio, Superdex 75 10/300 GL): no complex formation was detected
DNA conformation after binding (d(CG)6 duplex; CD 235-305 nm, 24°C, 7.5 μM DNA duplex, 5 mM HEPES–NaOH pH 7.5, 25 mM NaCl, 1 mM DTT): kept the duplex DNA in B-form
competition for binding to d(CG)6 (MBD domain added to pre-incubated Zα and d(CG)6) (d(CG)6 duplex; CD, increasing MBD domain): could not compete with the binding of Zα and Z-DNA
